Experiment [1] has as its target T1, Smc2 (S. cerevisiae, UniProt P38989 1-1170).
T1 construct: Smc2, SMC subunit of budding yeast (S. cerevisiae) condensin, wild type; Expressed from pGAL10-SMC2 together with the other subunits; Only the head domain and proximal coiled coil are resolved in the maps
T1 sequence: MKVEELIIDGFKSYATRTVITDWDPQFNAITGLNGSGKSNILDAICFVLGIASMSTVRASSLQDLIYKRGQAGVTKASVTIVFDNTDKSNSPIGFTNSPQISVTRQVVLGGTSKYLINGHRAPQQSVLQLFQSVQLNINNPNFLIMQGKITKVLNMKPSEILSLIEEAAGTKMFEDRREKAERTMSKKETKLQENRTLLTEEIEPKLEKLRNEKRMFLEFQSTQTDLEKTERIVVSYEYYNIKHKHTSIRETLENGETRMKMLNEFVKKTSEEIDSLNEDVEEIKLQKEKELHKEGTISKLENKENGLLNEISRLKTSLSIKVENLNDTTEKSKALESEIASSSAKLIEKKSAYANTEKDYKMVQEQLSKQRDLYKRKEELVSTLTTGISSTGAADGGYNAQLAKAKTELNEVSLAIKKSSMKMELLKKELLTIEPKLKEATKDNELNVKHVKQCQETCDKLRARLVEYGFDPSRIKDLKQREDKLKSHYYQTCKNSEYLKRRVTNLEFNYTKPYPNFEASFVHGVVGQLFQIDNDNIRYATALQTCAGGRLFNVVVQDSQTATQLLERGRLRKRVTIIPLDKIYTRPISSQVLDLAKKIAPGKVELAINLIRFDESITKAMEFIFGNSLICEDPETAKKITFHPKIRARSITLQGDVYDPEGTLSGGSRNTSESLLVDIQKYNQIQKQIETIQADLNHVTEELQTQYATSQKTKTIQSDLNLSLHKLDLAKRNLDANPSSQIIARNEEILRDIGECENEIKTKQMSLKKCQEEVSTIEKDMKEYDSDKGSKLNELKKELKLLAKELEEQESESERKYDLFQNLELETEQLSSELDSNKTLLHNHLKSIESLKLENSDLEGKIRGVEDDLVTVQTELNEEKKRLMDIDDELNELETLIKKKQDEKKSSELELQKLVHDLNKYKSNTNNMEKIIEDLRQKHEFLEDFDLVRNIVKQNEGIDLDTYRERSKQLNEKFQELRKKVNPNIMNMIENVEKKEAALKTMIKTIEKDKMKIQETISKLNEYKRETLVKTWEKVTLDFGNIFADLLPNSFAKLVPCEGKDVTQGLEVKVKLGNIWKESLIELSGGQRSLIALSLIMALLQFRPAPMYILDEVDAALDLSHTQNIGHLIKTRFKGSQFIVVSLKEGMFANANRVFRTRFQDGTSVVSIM
The experiment is described as follows: cryo-EM structure; condensin pentamer with relaxed circular DNA, ADP and BeF3; VPP and non-VPP datasets merged; maps at 8.75 and 8.95 Å. As to conditions: both partners purified.

Experiment [2] has as its target T2, Ycs4 (S. cerevisiae, UniProt Q06156 1-1176).
T2 construct: Ycs4, HAWK subunit of budding yeast (S. cerevisiae) condensin, wild type
T2 sequence: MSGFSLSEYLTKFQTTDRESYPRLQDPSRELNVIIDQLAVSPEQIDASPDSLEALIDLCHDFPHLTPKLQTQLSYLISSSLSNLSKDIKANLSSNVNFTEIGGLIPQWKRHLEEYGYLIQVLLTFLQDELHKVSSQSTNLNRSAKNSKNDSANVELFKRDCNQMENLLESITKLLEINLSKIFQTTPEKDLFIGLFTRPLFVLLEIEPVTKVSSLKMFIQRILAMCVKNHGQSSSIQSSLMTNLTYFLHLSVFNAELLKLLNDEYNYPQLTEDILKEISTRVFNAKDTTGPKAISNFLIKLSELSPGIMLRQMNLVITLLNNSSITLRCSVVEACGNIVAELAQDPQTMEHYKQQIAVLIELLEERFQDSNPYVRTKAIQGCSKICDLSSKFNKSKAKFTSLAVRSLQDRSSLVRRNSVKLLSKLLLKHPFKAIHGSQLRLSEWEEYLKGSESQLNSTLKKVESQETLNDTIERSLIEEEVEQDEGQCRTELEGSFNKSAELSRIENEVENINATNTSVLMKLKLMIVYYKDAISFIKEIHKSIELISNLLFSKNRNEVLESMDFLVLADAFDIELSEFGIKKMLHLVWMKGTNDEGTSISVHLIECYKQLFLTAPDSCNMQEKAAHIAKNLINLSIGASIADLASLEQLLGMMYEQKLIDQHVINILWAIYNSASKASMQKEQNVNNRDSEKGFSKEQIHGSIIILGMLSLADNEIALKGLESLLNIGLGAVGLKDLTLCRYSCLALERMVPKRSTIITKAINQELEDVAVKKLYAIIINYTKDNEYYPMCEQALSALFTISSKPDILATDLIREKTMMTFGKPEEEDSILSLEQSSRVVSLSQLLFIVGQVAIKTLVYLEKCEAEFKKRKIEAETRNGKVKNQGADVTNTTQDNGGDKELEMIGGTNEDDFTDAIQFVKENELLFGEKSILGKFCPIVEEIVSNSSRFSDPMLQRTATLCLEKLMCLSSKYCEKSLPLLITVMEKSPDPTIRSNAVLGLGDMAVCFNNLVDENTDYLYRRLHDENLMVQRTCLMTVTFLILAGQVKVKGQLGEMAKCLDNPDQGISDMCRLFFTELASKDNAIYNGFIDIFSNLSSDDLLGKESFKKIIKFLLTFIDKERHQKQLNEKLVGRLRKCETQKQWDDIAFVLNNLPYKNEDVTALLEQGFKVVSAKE
The description is as above. As to conditions: both partners purified.

B1: Brn1 (natural protein, S. cerevisiae)
chain: MTTQLRYENNDDDERVEYNLFTNRSTMMANFEEWIKMATDNKINSRNSWNFALIDYFYDLDVLKDGENNINFQKASATLDGCIKIYSSRVDSVTTETGKLLSGLAQRKTNGASNGDDSNGGNGEGLGGDSDEANIEIDPLTGMPISNDPDVNNTRRRVYNRVLETTLVEFETIKMKELDQELIIDPLFKKALVDFDEGGAKSLLLNTLNIDNTARVIFDASIKDTQNVGQGKLQRKEEELIERDSLVDDENEPSQSLISTRNDSTVNDSVISAPSMEDEILSLGMDFIKFDQIAVCEISGSIEQLRNVVEDINQAKDFIENVNNRFDNFLTEEELQAAVPDNAEDDSDGFDMGMQQELCYPDENHDNTSHDEQDDDNVNSTTGSIFEKDLMAYFDENLNRNWRGREHWKVRNFKKANLVNKESDLLEETRTTIGDTTDKNTTDDKSMDTKKKHKQKKVLEIDFFKTDDSFEDKVFASKGRTKIDMPIKNRKNDTHYLLPDDFHFSTDRITRLFIKPGQKMSLFSHRKHTRGDVSSGLFEKSTVSANHSNNDIPTIADEHFWADNYERKEQEEKEKEQSKEVGDVVGGALDNPFEDDMDGVDFNQAFEGTDDNEEASVKLDLQDDEDHKFPIRENKVTYSRVSKKVDVRRLKKNVWRSINNLIQEHDSRKNREQSSNDSETHTEDESTKELKFSDIIQGISKMYSDDTLKDISTSFCFICLLHLANEHGLQITHTENYNDLIVNYEDLATTQAAS
notes: Brn1, kleisin subunit of budding yeast (S. cerevisiae) condensin, wild type; also called kleisin Brn1; BRN1-HA3-His12
With B1, the binding result in experiment [1] and in experiment [2] was “binds” in each case.
